Three proteins from publication PMC6197793, “Optimized Enzymatic Synthesis of Feruloyl Derivatives Catalyzed by Three Novel Feruloyl Esterases from Talaromyces wortmannii in Detergentless Microemulsions” (Computational and Structural Biotechnology Journal, 2018) can be followed below.

What all share (assay): transesterification rate, HPLC, Michaelis-Menten fit
Holding throughout (type): biochemical, Talaromyces wortmannii

Substrate in series [1]: C=COC(=O)/C=C/c1ccc(O)c(OC)c1
As to conditions: acyl donor, co-substrate 200 mM prenol, detergentless microemulsion n-hexane: t-butanol: 100 mM MOPS-NaOH pH 6.0 (system II, 3.2% buffer), 40 °C, 8 h. The text has this: transesterification rate, HPLC, Michaelis-Menten fit on Fae125

Substrate in series [2]: C=COC(=O)/C=C/c1ccc(O)c(OC)c1
As to conditions: acyl donor, co-substrate 200 mM prenol, system II microemulsion, MOPS-NaOH pH 6.0, 40 °C, 8 h. The text has this:
transesterification rate, HPLC, Michaelis-Menten fit on Fae7262

Substrate in series [3]: C=COC(=O)/C=C/c1ccc(O)c(OC)c1
As to conditions: acyl donor, co-substrate 200 mM prenol, system I microemulsion (5.0% buffer), MOPS-NaOH pH 6.0, 40 °C, 8 h. The text has this:
transesterification rate, HPLC, Michaelis-Menten fit on Fae68

B1: Fae125 (Talaromyces wortmannii) (protein)
chain: QQSLWGQCGGTGWTGPTQCVSGACCQVQNPYYSQCIQGNCSPASSTSSTKTTATSVSTTTSARPSGTSLSSGCGKTLSLHSGTYTTTVSGQQRQYTLTLPQNYSPNKAYQLIFGYHWLSGTMQDVVSGSYYGIQPLAGDNAIFVAPQGLNNGWGNTNGDDITFTDQMLSTLENALCIDQTQIYSMGWSYGGAMSYALACARPNVFRAVAVMSGANLSGCSPGTQPVAYYAQHGVSDSVLPFSLGEGIRDTFVKDNHCTPTNPPAPAAGSGTHIKTEYSGCDSGHPVWWVAFDGPHEPLATDAGTSSSWTPGQIWSFFSLFH
notes: expressed in low-background C1 (Myceliophthora thermophila) strain; CBM1 predicted at residues 4-30; EC 3.1.1.73
In the case of B1, the Km (in general, the substrate concentration at which the rate is half of its maximum) in series [1] was 21.2 ± 7.4 mM.

B2: Fae7262 (Talaromyces wortmannii) (protein)
chain: ASLTQVNNFGDNPGSLQMYIYVPNTLASKPAVIVAMHPCGGSATEYYGMYDYHSPADQYGYILIYPSATRDYNCFDAYSSSSLTHNGGSDSLSIVNMVKYVISTYGADSSKVYMTGSSSGAIMTNVLAGAYPDVFAAGSAFSGMPYACLYGAGAADPIMSNQTCSQGQIQHTGQQWAAYVHNGYPGYTGRYPRLQMWHGTADNVISYADLGQEISQWTTVMGLSFTGNQTNTPLSGYTKMVYGDGSQFQAYSAAGVGHFVPTDVSVVLDWFGITSGTTTTTTSKTTSATTSTTSSAPSSTGGCTAAHWAQCGGIGYTGCTACVSPYTCQKSNDYYSQCL
notes: expressed in low-background C1 (Myceliophthora thermophila) strain; EC 3.1.1.73
Consider B2, for which the Km in series [2] amounted to 26.2 ± 2.9 mM.

B3: Fae68 (Talaromyces wortmannii) (protein)
chain: LPETHLQARGQSTSASSQSFQAKCEAFSSKINGQKKNAFQNDITLHSVTYIPSGGNISMATIPSVCANNAISTASPVEFCRVSLNVTTSSTSQIYMEAWLPGNYTGRFLSTGNGGLGGCIQYSDMLYATQFGFATVGTNNGHFGDTGKYFLGNTEILEDFAYRALHTGVVIGKELAKLFYTQISSGYNKSYYLGCSTGGRQGWKSLEKFPDDFDGVVAGSPAFNFINLSNWGARFLGITGDNTSDTFVTATQWGNLIHDEIIRQCDALDGAVDGIIEDPDLCHPVFETLICNSSSTASSSCLTGVQANTVNQVFTPLIGEDGKWLYPRMQPGSEVLAAYIYYSGQPFQYSTDWFRYVVYNNSAWDPTTWTLADAAAADRQDPFDISTWDSSLVSGFQKKGGKVLHYHGMEDPIITSDSSKAWYKYLADSTNTSPSELDEFYRFFAISGMGHCSPGSGASYIGQGVGTYVPGSEQHPEDNVLMAMVQWVEEGIAPEFVRGAKVASNGSVEYTRKHCKFPKRNVYVGPGNYTDENAWECV
notes: as for B2
For B3, the Km in series [3] was determined as 16.3 ± 3.7 mM.
